From patent US20240156980A1 (Molecular Partners, published 2024)
One block for each binder: values may come before it.

Tests used:
[1] = target: T1, human EGFR on tumor cells (human, UniProt P00533 25-1210); experiment: flow cytometry on HCT 116 tumor cells, detection with anti-DARPin antibodies
T1 construct: whole, on cells; also called EGFR on A431 cells
Protocol: (§1) The determination of CD3 binding was performed with human CD3 on Jurkat cells, and binding to hEGFR on cells with HCT116 tumor cells, using Flow Cytometer Attune Nxt. A titration of prodrug DARPin molecules was incubated with 200′000 cells per well (for both Jurkat and HCT116 cells) for 30 min at 4° C. After washing, CD3 binding of DARPin® molecule was detected by 1:1000-diluted anti-DARPin® Antibody-Mix (1 h incubation at 4° C.) with the corresponding secondary antibody anti-rabbit IgG Alexa Fluor 488 (30 min incubation at 4° C.), which was added after washing off excess anti-DARPin Antibodies. Cells were subsequently washed and stained for livedead (aqua, 1:1000, thermofisher) and resuspended in Cytofix fixation buffer (BD Biosciences). Median of mean fluorescence intensities of Alexa Fluor 488 binding on live cells were measured by Flow Cytometry and data was plotted using GraphPad Prism 8.

human CD3 on T cells [2] = target: T2, human CD3 on T cells (human, UniProt P07766 23-207; P09693 23-182; P04234 22-171); experiment: flow cytometry on Jurkat cells, detection with anti-DARPin antibodies and anti-rabbit IgG Alexa Fluor 488, MFI [column T-cell binding]
T2 construct: whole, on cells; also called human CD3 on Jurkat wt cells; CD3 on pan T-cells
T2 sequence (P07766 23-207, chain 1 of 3): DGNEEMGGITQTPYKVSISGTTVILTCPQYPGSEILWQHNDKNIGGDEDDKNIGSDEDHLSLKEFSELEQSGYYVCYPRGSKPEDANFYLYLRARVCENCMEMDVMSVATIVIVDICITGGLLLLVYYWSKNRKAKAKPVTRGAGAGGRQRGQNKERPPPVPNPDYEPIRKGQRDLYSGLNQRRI
T2 sequence (P09693 23-182, chain 2 of 3): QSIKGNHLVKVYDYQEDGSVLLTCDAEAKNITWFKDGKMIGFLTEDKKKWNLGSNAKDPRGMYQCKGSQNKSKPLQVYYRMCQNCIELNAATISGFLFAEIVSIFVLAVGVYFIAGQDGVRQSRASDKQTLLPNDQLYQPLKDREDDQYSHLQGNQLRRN
T2 sequence (P04234 22-171, chain 3 of 3): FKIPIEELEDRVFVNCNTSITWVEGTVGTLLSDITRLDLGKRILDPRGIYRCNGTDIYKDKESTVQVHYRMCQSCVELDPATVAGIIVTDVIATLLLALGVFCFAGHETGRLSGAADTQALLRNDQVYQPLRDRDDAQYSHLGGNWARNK
Protocol: as §1

[3] = target: T3, recombinant human EGFR extracellular domain (human, UniProt P00533 25-645); experiment: SPR (ProteOn XPR36); biotinylated DARPin captured on NLC chip, EGFR ECD as analyte; 1:1 Langmuir fit
T3 construct: range 25-645; The range L25-S645 is stated for the ECD used in the selection; the SPR analyte is printed as hEGFR / recombinant human EGFR ECD; also called hEGFR; human EGFR ECD
Protocol: (§2) All SPR measurements were performed using a ProteOn™ XPR36 Protein Interaction Array System (Bio-Rad). […] PBS pH7.4 containing 0.005% Tween-20 (Sigma) was used as flow buffer, which was additionally supplemented with 1 mg/ml BSA in the case of mEGFR target. A three-fold dilution series from 0.74 nM to 60 nM of hEGFR or mEGFR was injected for 180 s at a flow rate of 100 ul/min, and dissociation was recorded for 1800 s. The captured DARPin molecules were regenerated by a single pulse of 10 mM glycine-HCl, pH 2.5+1M NaCl. The data was double-referenced using the interspots (surface reference) and a blank injection (buffer reference). Each individual dilution-set was fitted to the Langmuir-1:1-model.

[4] = target: T4, recombinant mouse EGFR extracellular domain (mouse, UniProt Q01279 25-647); experiment: as above
T4 construct: extracellular domain; Bought protein; also called mEGFR; mouse EGFR ECD
Protocol: as §2

[5] = target: T5, CD3-specific binding domain C7v122; experiment: SPR (ProteOn XPR36), biotinylated Binder captured on NLC neutravidin chip as ligand, CD3-specific binding domain as analyte, PBS-T, 25 C; KD from kon/koff
T5 construct: Used as analyte in SPR; also called hC22_88B02v122
T5 chain: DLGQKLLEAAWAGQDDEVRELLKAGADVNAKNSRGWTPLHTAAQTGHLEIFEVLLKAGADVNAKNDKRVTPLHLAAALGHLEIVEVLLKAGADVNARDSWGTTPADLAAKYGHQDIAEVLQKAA
Source text: (§3) An important feature of a binding moiety of the invention is its affinity towards a drug molecule. Relevant aspects include the off-rate of the binding moiety from the drug molecule and the resulting blocking half-life. Surface plasmon resonance (SPR) assays were used to determine the binding affinity of ankyrin repeat binding domains to the CD3 binding domain of a TCE drug molecule. AN SPR data was generated using a Bio-Rad ProteOn XPR36 instrument with PBS-T (0.005% Tween 20) as running buffer. A new neutravidin sensor chip (NLC) was air-initialized and conditioned according to Bio-Rad manual.

[6] = target: T6, CD3-specific binding domain C7v118; experiment: as above
T6 construct: Used as analyte in SPR; also called hC22_88B02v118
T6 chain: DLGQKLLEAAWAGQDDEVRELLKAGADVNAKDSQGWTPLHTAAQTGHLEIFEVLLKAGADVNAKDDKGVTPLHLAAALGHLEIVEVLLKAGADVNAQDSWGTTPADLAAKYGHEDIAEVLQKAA
Source text: as §3

[7] = target: T7, CD3-specific binding domain C7v14; experiment: as above
T7 construct: Used as analyte in SPR; also called hC22_88B02v14
T7 chain: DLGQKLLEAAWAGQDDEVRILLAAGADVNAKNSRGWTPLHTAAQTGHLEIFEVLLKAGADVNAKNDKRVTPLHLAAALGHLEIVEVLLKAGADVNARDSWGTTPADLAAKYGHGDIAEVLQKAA
Source text: as §3

[8] = target: T8, CD3-specific binding domain C7v119; experiment: as above
T8 construct: Used as analyte in SPR; also called hC22_88B02v119
T8 chain: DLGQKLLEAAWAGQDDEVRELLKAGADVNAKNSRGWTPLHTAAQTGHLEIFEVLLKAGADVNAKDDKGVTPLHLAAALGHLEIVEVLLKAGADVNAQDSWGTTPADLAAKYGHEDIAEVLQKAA
Source text: as §3

[9] = target: T9, CD3-specific binding domain C7v127; experiment: SPR (ProteOn XPR36), biotinylated Binder on NLC chip, CD3-specific binding domain as analyte, 25 C
T9 construct: Used as analyte in SPR; also called hC22_88B02v127
T9 chain: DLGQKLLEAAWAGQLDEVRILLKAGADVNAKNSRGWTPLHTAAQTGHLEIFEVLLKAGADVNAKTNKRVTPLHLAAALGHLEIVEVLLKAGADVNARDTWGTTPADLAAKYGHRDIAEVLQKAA
Source text: as §3

[10] = target: T5, CD3-specific binding domain C7v122; experiment: SPR (ProteOn XPR36), biotinylated Binder captured on NLC neutravidin chip as ligand, CD3-specific binding domain as analyte, PBS-T, 25 C; KD by equilibrium fitting
Source text: as §3

[11] = target: T6, CD3-specific binding domain C7v118; experiment: as above
Source text: as §3

[12] = target: T7, CD3-specific binding domain C7v14; experiment: as above
Source text: as §3

[13] = target: T8, CD3-specific binding domain C7v119; experiment: as above
Source text: as §3

human CD3 on T cells [14] = target: T2, human CD3 on T cells; experiment: cell-based or functional assay
human CD3 on T cells [15] = target: T2, human CD3 on T cells; experiment: flow cytometry on Jurkat cells, detection with anti-DARPin antibodies
Protocol: as §1

human CD3 on T cells [16] = target: T2, human CD3 on T cells; experiment: cell-based or functional assay; remark: listed apart in the source

B1: CD3-PDD NCL EGFR-C7v119-[NCL1]-06E05v07-6His (designed binder)
chain: MGSDLGYKLLRAAFHGQDDEVRILLAAGADVNAKDLIGQTPLHNAAWVGHLEIVEVLLKAGADVNAKDYYGNTPLHLAAHDGHLEIVEVLLKAGADVNAQDTWGETPADLATNAGHEDIAEVLQKAAGSPTPTPTTPTPTPTTPTPTPTGSDLGQKLLEAAWAGQDDEVRELLKAGADVNAKNSRGWTPLHTAAQTGHLEIFEVLLKAGADVNAKDDKGVTPLHLAAALGHLEIVEVLLKAGADVNAQDSWGTTPADLAAKYGHEDIAEVLQKAASGPTPTPTTPTPTPTTPTPTPTGSDLGKKLLQAARAGQLDEVRELLKAGADVNAKDAKGLTPLHLAAYHGHLEIVEVLLKAGADVNAKDVYGWTPLHIAAASGHLEIVEVLLKAGADVNAKDWLGWTPLHLAASAGHLEIVEVLLKAGADVNAQDKSGKTPADLAARAGHQDIAEVLQKAAGSHHHHHH
EC50 [1]: 0.503 nM
binding result (human CD3 on T cells [2]): no binding (tested: 100000 pM)

B2: CD3-PDD NCL EGFR-C7v122-[NCL1]-06E05v07-6His (designed binder)
chain: MGSDLGYKLLRAAFHGQDDEVRILLAAGADVNAKDLIGQTPLHNAAWVGHLEIVEVLLKAGADVNAKDYYGNTPLHLAAHDGHLEIVEVLLKAGADVNAQDTWGETPADLATNAGHEDIAEVLQKAAGSPTPTPTTPTPTPTTPTPTPTGSDLGQKLLEAAWAGQDDEVRELLKAGADVNAKNSRGWTPLHTAAQTGHLEIFEVLLKAGADVNAKNDKRVTPLHLAAALGHLEIVEVLLKAGADVNARDSWGTTPADLAAKYGHQDIAEVLQKAASGPTPTPTTPTPTPTTPTPTPTGSDLGKKLLQAARAGQLDEVRELLKAGADVNAKDAKGLTPLHLAAYHGHLEIVEVLLKAGADVNAKDVYGWTPLHIAAASGHLEIVEVLLKAGADVNAKDWLGWTPLHLAASAGHLEIVEVLLKAGADVNAQDKSGKTPADLAARAGHQDIAEVLQKAAGSHHHHHH
EC50 [1]: 0.593 nM
binding result (human CD3 on T cells [2]): no binding

B4: Binder #2 (designed binder)
chain: MRGSHHHHHHGSDLGKKLLQAARAGQLDEVRELLKAGADVNAKDAKGLTPLHLAAYHGHLEIVEVLLKAGADVNAKDVAGWTPLHIAAASGHLEIVEVLLKAGADVNAKDWLGWTPLHLAASHGHLEIVEVLLKAGADVNAQDKSGKTPADLAARAGHQDIAEVLQKAA
modifications: biotinylated for SPR (site not stated)
notes: N-terminal His-tag; also called 06E05v03
Kd [5]: 92.4 nM
Kd [6]: 126 nM
Kd [7]: 114 nM
Kd [8]: 141 nM
binding result [9]: binds

B6: Active TCE EGFR-C7v119-6His (designed binder)
chain: MGSDLGYKLLRAAFHGQDDEVRILLAAGADVNAKDLIGQTPLHNAAWVGHLEIVEVLLKAGADVNAKDYYGNTPLHLAAHDGHLEIVEVLLKAGADVNAQDTWGETPADLATNAGHEDIAEVLQKAAGSPTPTPTTPTPTPTTPTPTPTGSDLGQKLLEAAWAGQDDEVRELLKAGADVNAKNSRGWTPLHTAAQTGHLEIFEVLLKAGADVNAKDDKGVTPLHLAAALGHLEIVEVLLKAGADVNAQDSWGTTPADLAAKYGHEDIAEVLQKAAGSHHHHHH
notes: Bispecific ankyrin repeat protein; also called active TCE (C7v119 comprising construct); anti-EGFR x anti-CD3
T-cell activation EC50, HCT 116 tumor cells and pan T-cells (human CD3 on T cells [14]): 10.8 pM
tumor cell killing EC50, HCT 116 tumor cells and pan T-cells (human CD3 on T cells [14]): 18.5 pM
EC50 (human CD3 on T cells [15]): > 10 nM
tumor cell killing EC50 (LDH release), HCT 116 tumor cells and pan T-cells (human CD3 on T cells [16]): 7.4 pM
EC50 [1]: 0.427 nM

B7: Active TCE EGFR-C7v122-6His (designed binder)
chain: MGSDLGYKLLRAAFHGQDDEVRILLAAGADVNAKDLIGQTPLHNAAWVGHLEIVEVLLKAGADVNAKDYYGNTPLHLAAHDGHLEIVEVLLKAGADVNAQDTWGETPADLATNAGHEDIAEVLQKAAGSPTPTPTTPTPTPTTPTPTPTGSDLGQKLLEAAWAGQDDEVRELLKAGADVNAKNSRGWTPLHTAAQTGHLEIFEVLLKAGADVNAKNDKRVTPLHLAAALGHLEIVEVLLKAGADVNARDSWGTTPADLAAKYGHQDIAEVLQKAAGSHHHHHH
notes: Bispecific ankyrin repeat protein; also called active TCE (C7v122 comprising construct); anti-EGFR x anti-CD3
T-cell activation EC50, HCT 116 tumor cells and pan T-cells (human CD3 on T cells [14]): 6.8 pM
tumor cell killing EC50, HCT 116 tumor cells and pan T-cells (human CD3 on T cells [14]): 7.2 pM
EC50 (human CD3 on T cells [15]): 7.9 nM
tumor cell killing EC50 (LDH release), HCT 116 tumor cells and pan T-cells (human CD3 on T cells [16]): 2.2 pM
EC50 [1]: 0.518 nM

Other lines, results leading:

Kd [3]: 0.47 nM
koff [3]: 0.0002 s⁻¹
kon [3]: 420000 M⁻¹ s⁻¹
Kd [4]: 0.49 nM
koff [4]: 0.00032 s⁻¹
kon [4]: 640000 M⁻¹ s⁻¹
B3: anti-EGFR DARPin (biotinylated, monovalent EGFR-specific ankyrin repeat domain) (designed binder)
chain: MGSDLGYKLLRAAFHGQDDEVRILLAAGADVNAKDLIGQTPLHNAAWVGHLEIVEVLLKAGADVNAKDYYGNTPLHLAAHDGHLEIVEVLLKAGADVNAQDTWGETPADLATNAGHEDIAEVLQKAA
modifications: biotinylated (site not stated)

binding result [9]: binds
Kd [10]: 27.2 nM
Kd [11]: 41.4 nM
Kd [12]: 35.3 nM
Kd [13]: 37.5 nM
B5: Binder #4 (designed binder)
chain: MRGSHHHHHHGSDLGKKLLQAARAGQLDEVRELLKAGADVNAKDAKGLTPLHLAAYHGHLEIVEVLLKAGADVNAKDVYGWTPLHIAAASGHLEIVEVLLKAGADVNAKDWLGWTPLHLAASAGHLEIVEVLLKAGADVNAQDKSGKTPADLAARAGHQDIAEVLQKAA
modifications: biotinylated for SPR (site not stated)
notes: N-terminal His-tag; also called 06E05v07
